Sequences and labels used below:
B1: Myc-MEK [Drosophila] / V5-KSR [Drosophila] (parent complex)
chain 1: MSKNKLNLVLPPVNTEATVAAATVAPTPPFKTPSGTDTHSLLGKPKTSIDALTETLEGLDMGDTERKRIKMFLSQKEKIGELSDEDLEKLGELGSGNGGVVMKVRHTHTHLIMARKLIHLEVKPAIKKQILRELKVLHECNFPHIVGFYGAFYSDGEISICMEYMDGGSLDLILKRAGRIPESILGRITLAVLKGLSYLRDNHAIIHRDVKPSNILVNSSGEIKICDFGVSGQLIDSMANSFVGTRSYMSPERLQGTHYSVQSDIWSLGLSLVEMAIGMYPIPPPNTATLESIFADNAEESGQPTDEPRAMAIFELLDYIVNEPPPKLEHKIFSTEFKDFVDICLKKQPDERADLKTLLSHPWIRKAELEEVDISGWVCKTMDLPPSTPKRNTSPN
chain 2: MSSNNNAPASAPDTGSTNANDPISGSLSVDSNLVIIQDMIDLSANHLEGLRTQCAISSTLTQQEIRCLESKLVRYFSELLLAKMRLNERIPANGLVPHTTGNELRQWLRVVGLSQGTLTACLARLTTLEQSLRLSDEEIRQLLADSPSQREEEELRRLTRAMQNLRKCMESLESGTAASNNDPEQWHWDSWDRPTHIHRGSVGNIGLGNNSTASPRTHHRQHGVKGKNSALANSTNFKSGRQSPSATEELNSTQGSQLTLTLTPSPPNSPFTPSSGLSSSLNGTPQRSRGTPPPARKHQTLLSQSHVQVDGEQLARNRLPTDPSPDSHSSTSSDIFVDPNTNASSGGSSSNVLMVPCSPGVGHVGMGHAIKHRFTKALGFMATCTLCQKQVFHRWMKCTDCKYICHKSCAPHVPPSCGLPREYVDEFRHIKEQGGYASLPHVHGAAKGSPLVKKSTLGKPLHQQHGDSSSPSSSCTSSTPSSPALFQQRERELDQAGSSSSANLLPTPSLGKHQPSQFNFPNVTVTSSGGSGGVSLISNEPVPEQFPTAPATANGGLDSLVSSSNGHMSSLIGSQTSNASTAATLTGSLVNSTTTTSTCSFFPRKLSTAGVDKRTPFTSEYTDTHKSNDSDKTVSLSGSASTDSDRTPVRVDSTEDGDSGQWRQNSISLKEWDIPYGDLLLLERIGQGRFGTVHRALWHGDVAVKLLNEDYLQDEHMLETFRSEVANFKNTRHENLVLFMGACMNPPYLAIVTSLCKGNTLYTYIHQRREKFAMNRTLLIAQQIAQGMGYLHAREIIHKDLRTKNIFIENGKVIITDFGLFSSTKLLYCDMGLGVPHNWLCYLAPELIRALQPEKPRGECLEFTPYSDVYSFGTVWYELICGEFTFKDQPAESIIWQVGRGMKQSLANLQSGRDVKDLLMLCWTYEKEHRPQFARLLSLLEHLPKKRLARSPSHPVNLSRSAESVF
B2: Flag-CNK^2–549 [Drosophila] / GST-HYP [Drosophila] (parent complex)
chain 1: AYINIAEWTPDQVTDWIKGLDESMKGYLYEFSKQEIGGRALLNIRPYELENLGMLRIGHQEIVLEAVENLRNFHYHLKNDNLQFMALHVATAAKNLHRELARNHAESTKIDTRILHDITRTIATLKPLVGSLERTPFRKQEMYREYCGNVLKCGLELATIAHRDRFALQPVPAIRQSAERLENLANFVIQDISDPMVLQPASLNLVTLKKRESELGFNIESSYNGIHRVTDIKYNSPAHNSGKIEDGDEIVQINYQTVVGWQHRTVLEHLREALPDVVLTVKKRPKHTKMFGQIYMQPYRLPSKKRNMAARWAAQMPSPRAAFLTLDTEQLATGGTGSAVPDPSKSLSSEKREVLTKANPVSSASDSDSSCSDIPTPTDPKLAAREIRLYYPKPRALLQRRNTICGCEYLSLKNSDLVVPSWHERKPGIGSPTNCDPGSPSIRDKSISFGYGLEMAARPTTCIGIAGDTSTDKARRMFHEARKLKQLTEDSQREFLVDRYKPGVSKVVRFDAKEDYVMKNEKFICNVENTILETFEPIPFADEGDEDA
chain 2: MGEETINSTQNKTRTKTTRPKAVYLWTVSDVLKWYRRHCGEYTQYEQLFAQHDITGRALLRITDSSLQRMGVTDNRDREAIWREIVKQRLKTDIMEIRDMERLNIY

Variants of B1 are the subject of one test. In words: anti-V5 immunoprecipitation, immunoblot quantification; S2 cells; V5-KSR and Myc-MEK co-expressed; anti-Myc (MEK) blot; parent: 1. For orientation: Immunoblotting shows a protein as a band on a membrane.
For chain 2 R913E, the ratio to parent is 1.31.

The variants in a further test derive from B1. In words: anti-V5 immunoprecipitation, immunoblot quantification; S2 cells; V5-KSR and Myc-MEK co-expressed; anti-MEK blot; parent: 1.
For chain 2 K903D, the ratio to parent came to 0.46.

As to chain 2 M902D, the ratio to parent stood at 0.9.

In the case of chain 2 Y925D, the ratio to parent turned out to be 1.24.

As for chain 2 W896R, the ratio to parent is 0.15.

With chain 2 E926R, the ratio to parent worked out at 1.51.

The variants in another test derive from B1. In words: anti-V5 immunoprecipitation, immunoblot quantification; S2 cells; V5-KSR and Myc-MEK co-expressed; anti-Myc (MEK) blot; parent: 1. The source holds these as a separate data set.
Take chain 1 E323R: the ratio to parent came to 0.82.

The variants in the next test derive from B2. In words: GST pull-down, immunoblot quantification; S2 cells; only GST-HYP and Flag-CNK2–549 co-expressed; anti-Flag blot; parent: 1.
As for chain 2 L90D, the ratio to parent turned out to be 0.24.

For the variant chain 2 I97D, the ratio to parent was 0.28.

As to chain 2 L90D, chain 2 I97D, the ratio to parent was found to be 0.25.

Variants of B2 are the subject of another test. In words: GST pull-down, immunoblot quantification; S2 cells; GST-HYP, Flag-CNK2–549 + RRKM co-expressed; anti-Flag (CNK) blot; parent: 1.
Regarding chain 2 L90D, the ratio to parent is 0.24.

Consider chain 2 I97D, for which the ratio to parent worked out at 0.53.

chain 2 L90D, chain 2 I97D: the ratio to parent is 0.15.

The variants in another test derive from B2. In words: GST pull-down, immunoblot quantification; S2 cells; GST-HYP + RRKM co-expressed; anti-Flag (CNK) blot; parent: 1.
On to chain 1 K282D, for which the ratio to parent is 0.31.

Take chain 1 D80R, chain 1 K282D: the ratio to parent was determined as 0.73.

chain 1 D80R: the ratio to parent was 1.03.

Variants of B2 are the subject of the next test. In words: GST pull-down, immunoblot quantification; S2 cells; only Flag-CNK2–549 and GST-HYP co-expressed; anti-Flag blot; parent: 1.
Consider chain 1 K282D, for which the ratio to parent was 0.4.

Turning to chain 1 D80R, chain 1 K282D, the ratio to parent is 1.03.

In the case of chain 1 D80R, the ratio to parent turned out to be 0.46.

A further test covers variants of B2. In words: GST pull-down, immunoblot quantification; S2 cells; GST-HYP, V5-KSR, Myc-MEK co-expressed; anti-Flag (CNK) blot; parent: 1.
For the variant chain 1 R264E, the ratio to parent is 0.68.

Consider chain 1 M196E, for which the ratio to parent amounted to 0.65.

Regarding chain 1 A40F, the ratio to parent amounted to 0.79.

For chain 1 K109E, the ratio to parent was determined as 0.81.

chain 1 K33D: the ratio to parent was found to be 0.84.

For chain 1 T135F, the ratio to parent is 0.84.

With chain 1 L267R, the ratio to parent amounted to 0.85.

Regarding chain 1 H263A, the ratio to parent is 0.95.

Variants of B2 are the subject of another test. In words: GST pull-down, immunoblot quantification; S2 cells; only GST-HYP and Flag-CNK2–549 co-expressed; anti-Flag blot; parent: 1. The source holds these as a separate data set.
Turning to chain 1 I122D, chain 1 L151D, the ratio to parent was determined as 0.12.

As for chain 1 I122D, the ratio to parent was determined as 0.17.

Regarding chain 1 L151D, the ratio to parent was 0.76.

The next test covers variants of B2. In words: GST pull-down, immunoblot quantification; S2 cells; GST-HYP, Flag-CNK2–549 + RRKM co-expressed; anti-Flag (CNK) blot; parent: 1. This is another data set of the same source.
As to chain 1 I122D, chain 1 L151D, the ratio to parent was determined as 0.1.

For chain 1 I122D, the ratio to parent stood at 0.63.

Turning to chain 1 L151D, the ratio to parent is 0.33.

Variants of B2 are the subject of the next test. In words: GST pull-down, immunoblot quantification; S2 cells; only Flag-CNK2–549 and GST-HYP co-expressed; anti-Flag (CNK) blot; parent: 1.
For chain 1 Q83E, the ratio to parent amounted to 1.12.

As to chain 1 R45F, the ratio to parent amounted to 0.73.

For the variant chain 1 Y75R, the ratio to parent was determined as 0.93.

As to chain 1 N81E, the ratio to parent was determined as 0.9.

Consider chain 1 N81W, for which the ratio to parent was 0.7.

In the case of chain 1 R98E, the ratio to parent worked out at 1.27.

As to chain 1 N95E, the ratio to parent came out at 0.99.

A further test covers variants of B2. In words: GST pull-down, immunoblot quantification; S2 cells; Flag-CNK2–549, V5-KSR, Myc-MEK, GST-HYP co-expressed; anti-CNK blot; parent: 1.
Take chain 1 Q83E: the ratio to parent is 0.4.

For chain 1 R45F, the ratio to parent amounted to 0.79.

In the case of chain 1 Y75R, the ratio to parent came out at 0.73.

Consider chain 1 N81E, for which the ratio to parent amounted to 0.24.

For chain 1 N81W, the ratio to parent stood at 0.09.

With chain 1 R98E, the ratio to parent was determined as 0.77.

chain 1 N95E: the ratio to parent is 0.82.

The variants in another test derive from B2. In words: GST pull-down, immunoblot quantification; S2 cells; GST-HYP, V5-KSR, Myc-MEK co-expressed; anti-Flag (CNK) blot; parent: 1. The source holds these as a separate data set.
With chain 1 M196E, the ratio to parent amounted to 0.55.

On to chain 1 Q199A, for which the ratio to parent came to 0.87.

Consider chain 1 D194K, chain 1 V197E, for which the ratio to parent amounted to 0.27.

chain 1 S193A: the ratio to parent worked out at 0.94.

For the variant chain 1 D194K, the ratio to parent turned out to be 0.24.

Turning to chain 1 V197E, the ratio to parent amounted to 0.24.

Variants of B2 are the subject of a further test. In words: GST pull-down, immunoblot quantification; S2 cells; only Flag-CNK2–549 and GST-HYP co-expressed; anti-Flag (CNK) blot; parent: 1. This is another data set of the same source.
With chain 1 M196E, the ratio to parent came out at 0.82.

Consider chain 1 Q199A, for which the ratio to parent worked out at 0.83.

As to chain 1 D194K, chain 1 V197E, the ratio to parent is 1.03.

With chain 1 S193A, the ratio to parent came out at 0.81.

In the case of chain 1 D194K, the ratio to parent was 0.76.

With chain 1 V197E, the ratio to parent was 0.77.

Variants of B2 are the subject of the next test. In words: GST pull-down, immunoblot quantification; S2 cells; GST-HYP + RRKM (Ha-RASV12, Pyo-RAF, V5-KSR, Myc-MEK) co-expressed; anti-Flag (CNK) blot; parent: 1.
As to chain 1 M196E, the ratio to parent was determined as 0.34.

For the variant chain 1 Q199A, the ratio to parent turned out to be 0.72.

In the case of chain 1 S193A, the ratio to parent was 0.86.

On to chain 1 D194K, for which the ratio to parent was found to be 0.24.

chain 1 V197E: the ratio to parent was determined as 0.21.

A further test covers variants of B2. In words: GST pull-down, immunoblot quantification; S2 cells; GST-HYP + RRKM co-expressed; anti-Flag (CNK) blot; parent: 1. The source holds these as a separate data set.
In the case of chain 1 E249R, the ratio to parent amounted to 0.84.

As to chain 1 V251R, the ratio to parent was 0.68.

On to chain 1 E249R, chain 1 V251R, for which the ratio to parent is 0.08.

Consider chain 1 F73R, chain 1 V251R, for which the ratio to parent was determined as 0.61.

As for chain 1 A66F, chain 1 F73R, the ratio to parent stood at 0.58.

Take chain 1 F73R: the ratio to parent is 0.94.

For the variant chain 1 A66F, the ratio to parent came out at 0.87.

Turning to chain 1 F73R, chain 1 E249R, the ratio to parent turned out to be 0.22.

Variants of B2 are the subject of a further test. In words: GST pull-down, immunoblot quantification; S2 cells; only Flag-CNK2–549 and GST-HYP co-expressed; anti-Flag blot; parent: 1. The source holds these as a separate data set.
Turning to chain 1 E249R, the ratio to parent was 0.75.

For the variant chain 1 V251R, the ratio to parent is 0.07.

As to chain 1 E249R, chain 1 V251R, the ratio to parent worked out at 0.05.

For chain 1 F73R, chain 1 V251R, the ratio to parent was 0.04.

Turning to chain 1 A66F, chain 1 F73R, the ratio to parent came out at 0.12.

Turning to chain 1 F73R, the ratio to parent was determined as 0.91.

Take chain 1 A66F: the ratio to parent was 0.29.

Turning to chain 1 F73R, chain 1 E249R, the ratio to parent turned out to be 0.06.

(Values after paper PMC11257983 (2024).)
